From PMC2790542

Tested on: O=C(O)/C=C\Cl
Assay: purified protein
Conditions: active site

Q: Which results are given for “cis-3-chloroacrylic acid dehalogenase (cis-CaaD) (coryneform bacterium)”?
A: Km: 200 ± 15 µM; kcat: 5.9 ± 0.1 s⁻¹; kcat/Km: 29000 M⁻¹ s⁻¹
